Data as given in patent publication US20170008937.

Biological target: GST-Rac1 (UniProt P63000)

“TcdASAS (Clostridium difficile toxin A with VNN mutated to SAS: V1109S, N1110A, N1111S)” was tested, and the “Rac1 glucosylation in vitro (Western blot, 100 nM toxin, 3 hours)” value was “not impaired in their capacity to glucosylate Rac1 in vitro”.
